The source of these data is the supplement of paper PMC9170038.

For series [1], the system named is MS2 coat protein. As to the kind of experiment: apparent KD of MS2 coat protein, switch ON state; designed switch direction (-1 OFF switch, 1 ON switch): 1; higher = weaker reporter binding. Particulars: FMN input: 0 or 200 uM; Eterna round: R93 (includes R88 designs). The gist of the method:
(§1)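 Binding of SNAP-549-labelled MS2 coat protein was measured on designed RNA switches transcribed on-chip from Illumina sequencing clusters. The protein rose in twofold steps from 0.7 or 1.5 nM to 3 µM, with 0.8–1.5 h per step early on and 10–20 min per step later, in 100 mM Tris-HCl pH 7.5, 80 mM KCl, 4 mM MgCl2, without or with constant ligand. Each design's apparent KD is the median of fits to its normalised cluster binding curves.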

The test system of series [2] is MS2 coat protein. As to the kind of experiment: apparent KD of MS2 coat protein, switch OFF state (with FMN for OFF switches, without FMN for ON switches); designed switch direction (-1 OFF switch, 1 ON switch): 1; higher = weaker reporter binding. Particulars: FMN input: 0 or 200 uM; Eterna round: R93 (includes R88 designs). The gist of the method:
as §1

As for “GAUAAACAUGAGGAUCACCCAUGUAGAAAUAUGGGAGGAUAUACAAAGACGAAAGUCAAAGUAGAAGGCCUAAAAG [77%, Mat - Mod of Eli - With 1 more U's]”, the “apparent KD of MS2 coat protein” value in series [1] turned out to be 24.4 nM; in series [2] it was 55.5 nM.
Taken in the same sequence, the figures for “AGAAUAAAAACAGAGGAUAUCCAAAAGAAAACAUGAGGAUCACCCAUGUAAAAGAAAAUAAAAUGGGAGAAGGCUGAAAUAAAGA [Mat - Same State 2 - Eli mod - D97]” were 14.9 nM and 33.2 nM.
Taken in the same sequence, the figures for “AUAAAUAAAAGCGAGGAUAUCCAAAAAAAAACAUGAGGAUCACCCAUGUAAAAGAAAAUAAAAUGGGAGAAGGCGCAAAAUAAAU [SS2 M 9]” were 21.2 nM and 7.54 nM.
Taken in the same sequence, the figures for “AAACCACAUGAGGAUCACCCAUGUGAAAUACACAUAGGAUAUGCGAAAAGAAACAAAGAAGCAGAAGGGUGAAAAA [75%, Ex sub1, 17]” were 35.4 nM and 41.3 nM.
In the case of “GGGAGGAAGAGAGAGGAUAUCCAAAGGAAAACAUGAGGAUCACCCAUGUAAAAGGUAGGAAAUUGGGAGAAGGCUCAAGAGAAGG [salish99-ss2-050]”, the “apparent KD of MS2 coat protein” value stood at 18.2 nM in series [1] and 26.6 nM in series [2].
In the case of “AAGAUACAUGAGGAUCACCCAUGUCACCUCACACGAGGAUAUCUGUGCAGUACUCAGUACGGAGAAGGCGUGGAAA [Mat - Same State 1 - Hyphema mod - D98]”, the “apparent KD of MS2 coat protein” value in series [1] was 25 nM; in series [2], 56.4 nM.
As for “AAAAAACAUGAGGAUCACCCAUGUCCUCGGACGUGAGGAUAUGUACAGACUUCGGUCUGUACAGAAGGCACGAAAA [SS1 - 1036]”, the “apparent KD of MS2 coat protein” value in series [1] stood at 503 nM; in series [2], 319 nM.
On the same counts, the results for “AAGAAAGUUUACGAGGAUAUGUUCCGCAUAACAUGAGGAUCACCCAUGUGAACAAGAAAGGCGACGCAGAAGGCGUGAGCAAAGA [Atanansori]” are 26.1 nM and 403 nM.
On the same counts, the results for “AUAAAACAUGAGGAUCACCCAUGUCCGACAAAUCAAGGAUAUGAGAGCCUAACCAGGCUGUUAGAAGGUGAAAGAU [Riteat]” are 229 nM and 192 nM.
Taken in the same sequence, the figures for “UGAAAGGAGAGAGAGGAUAUCCAAAGGAAAACAUGAGGAUCACCCAUGUAGAAGGUAGGAAAUUGGGAGAAGGCUCAAGAAAGAG [salish99-ss2-139]” were 50.7 nM and 35.4 nM.
For the sequence “GAAAAACAUGAGGAUCACCCAUGUAAGAUAAACACAGGAUAUGCGAAAAGAAAGAAAGAAGCAGAAGGGUGAAAAG [Mat - Same State 1 - Tesla mod - 42]”, the “apparent KD of MS2 coat protein” value was found to be 15.2 nM in series [1] and 43.8 nM in series [2].
Taken in the same sequence, the figures for “GGGAGACAUGAGGAUCACCCAUGUGAGAAGAGGCGAGGAUAUCGAAAGAAAGAAGAGAAACGAGAAGGCGCGAGAC [salish99-SS1-061]” were 30.4 nM and 45.1 nM.
On to “AAAAAACAUGAGGAUCACCCAUGUAAAAAUAUGGGAGGAUAUUCAAACACGAAAGUGAAAGAAGAAGGCCUAAAAA [SS! MT 18]”, for which the “apparent KD of MS2 coat protein” value worked out at 15 nM in series [1] and 139 nM in series [2].
On the same counts, the results for “AAAAAAUAAAAAAAGGAUAUAAAUGCUAGAACAUGAGGAUCACCCAUGUACUAGCAAAAAAUAAAAAAGAAGGAAAAAUAAAAAA [SS2: MS2 18]” are 15.6 nM and 14.8 nM.
“AGGAAACAUGAGGAUCACCCAUGUAAAAGGUGGUUAGGAUAUGCAAAAAGAAAAAGAAAAGCAGAAGGGACAAGAA [mod of top voted: #1]”: the “apparent KD of MS2 coat protein” value in series [1] was found to be 351 nM; in series [2] it was 600 nM.
As to “UGGAGACAUGAGGAUCACCCAUGUAGAAGGAUGGGAGGAUAUACAAAGACGAGAGUCAGAGUAGAAGGCCUAGGAG [salish99-ss1-188]”, the “apparent KD of MS2 coat protein” value turned out to be 31.3 nM in series [1] and 42.8 nM in series [2].
Taken in the same sequence, the figures for “AAGAAACAUGAGGAUCACCCAUGUAGAAAUAUGGGAGGAUAUACAAGGACGAAAGUCAAGGUAGAAGGCCUAAGAA [Mat - Same State 1 - Meechl mod - D132]” were 20.7 nM and 112 nM.
On the same counts, the results for “AACAAUCUAUCUGAGGAUAUGUGUCGAAAGACAUGAGGAUCACCCAUGUAAAAACAUGGAAAGAUACAGAAGGCAGAUAGAUUGA [SS2: 1157]” are 28.4 nM and 107 nM.
On the same counts, the results for “AAAGACAUGGUGCAGGAUAUAUUAAUAGUCACAUGAGGAUCACCCAUGUUCAUAUAUAUGAACGAGUAGAAGGGCGAUGAAAAAA [SameState2 Malc#6]” are 98 nM and 90.8 nM.
With “AAAAAACAUGAGGAUCACCCAUGUAAAAAAAACGCAGGAUAUCCCUUUUUUAAAUGGGAGGGAGAAGGGUGAAAAA [Nob's Hobby 13 - Jieux - Same State 1]”, the figures for the “apparent KD of MS2 coat protein” value in series [1] and in series [2] were 22.4 nM and 43.8 nM, respectively.
As to “AGGAGACAUGAGGAUCACCCAUGUGAGAAGAGGCGAGGAUAUCGAAAAAAAGAAAGAAAACGAGAAGGCGCGAGAA [salish99-SS1-015]”, the “apparent KD of MS2 coat protein” value in series [1] turned out to be 37.6 nM; in series [2], 64.5 nM.
Taken in the same sequence, the figures for “AGGAGACAUGAGGAUCACCCAUGUGAGAAGAGGCGAGGAUAUCGAAAGAAAGAAGAGAAACGAGAAGGCGCGAGCG [salish99-SS1-028]” were 26.7 nM and 34.3 nM.
Regarding “AAUAUACAUGAGGAUCACCCAUGUUAGGUGGGACUAGGAUAUCAGAGUACAUAAUGAACAUGAGAAGGAGUAUCAA [JR_SS001_Sub404]”, the “apparent KD of MS2 coat protein” value is 115 nM in series [1] and 110 nM in series [2].
On the same counts, the results for “AAAUAAAUGACUAAGGAUAUAUCGGAGAAAACAUGAGGAUCACCCAUGUAAUAAUAAAAAGGGUGAUAGAAGGUAGUCAACAAAC [Mod 1 of Pariah 4 by Hyphema in Round 1]” are 37.3 nM and 63.6 nM.
On the same counts, the results for “AAUCCAAAUAGUCAGGAUAUCAAAAAUAAGACAUGAGGAUCACCCAUGUACUAAGUAAAAGUAAAUGAGAAGGGACAGGGUGAAA [JR_SS002_Sub402]” are 138 nM and 145 nM.
Taken in the same sequence, the figures for “UAAUAAUAAACCAAGGAUAUGGAGUUUCCAACAUGAGGAUCACCCAUGUUUAGCAUGAAAUCGAUCCAGAAGGUGGAGCCAAAUA [JR_SS002_Sub1005]” were 54.1 nM and 102 nM.
Consider “AAAAAACAUGAGGAUCACCCAUGUGCAAAAUUCGCAGGAUAUUUUUUUUUUAAAUGAGAGGGAGAAGGGUGUAAAA [Nob's Hobby 22 - Jieux - Same State 1]”, for which the “apparent KD of MS2 coat protein” value in series [1] turned out to be 27.4 nM; in series [2], 33 nM.
Taken in the same sequence, the figures for “AUAAAAGAAGCGAAGGAUAUCCAAAGGACCACAUGAGGAUCACCCAUGUAAAGAAAGAAAAAAUGGGAGAAGGUCGCAAAGAAUA [73%, More Fisker Same State 2, D3, 7]” were 74.9 nM and 97.4 nM.
As to “CAUCAUGCGCCUAAGGAUAUGUCUCACAAGACAUGAGGAUCACCCAUGUAGAAUAAAUAAACGAUGCAGAAGGUGGAGUGCAUGC [Vetimaor]”, the “apparent KD of MS2 coat protein” value worked out at 56.7 nM in series [1] and 361 nM in series [2].
